Assay [1] deals with PD-L1 (human) (UniProt Q9NZQ7).
In assay [2] the target is CD28 (human) (UniProt P10747).
Assay [3] concerns the target CD28 (human) (UniProt P10747). As to the kind of experiment: flow cytometry, Jurkat cells (CD28). For orientation: Flow cytometry measures light scatter and fluorescence of single cells or particles in a stream.
For assay [4], the target named is human CTLA-4 (human) (UniProt P16410). As to the kind of experiment: flow cytometry, CHO cells stably expressing CTLA4.
In assay [5] the target is PD-L1 (human) (UniProt Q9NZQ7). As to the kind of experiment: flow cytometry, CHO cells stably expressing PD-L1.
For assay [6], the target named is PD-L1 (human) (UniProt Q9NZQ7). As to the kind of experiment: flow cytometry, HEK293 cells transfected with full-length human PD-L1, PE anti-human Fc.
Assay [7] addresses PD-L1 (human) (UniProt Q9NZQ7). This is another data set of the same source.
The target of assay [8] is CD28 (human) (UniProt P10747). This is another data set of the same source.
Assay [9] concerns the target CD28 (human) (UniProt P10747). As to the kind of experiment: flow cytometry, Jurkat cells (CD28); MFI over CD80 WT IgV-Fc.
The target in assay [10] is human CTLA-4 (human) (UniProt P16410). As to the kind of experiment: flow cytometry, CHO cells stably expressing CTLA4. The source holds these as a separate data set.
In assay [11] the target is CD28 (human) (UniProt P10747). As to the kind of experiment: flow cytometry, Jurkat cells (CD28). The source holds these as a separate data set.
Assay [12] has as its target human CTLA-4 (human) (UniProt P16410). As to the kind of experiment: flow cytometry, CHO/CTLA4 cells; MFI over CD80 WT IgV-Fc.
Assay [13] addresses PD-L1 (human) (UniProt Q9NZQ7). As to the kind of experiment: flow cytometry, CHO/PD-L1 cells; MFI over CD80 WT IgV-Fc.
Assay [14] concerns the target PD-L1 (human) (UniProt Q9NZQ7). As to the kind of experiment: flow cytometry, CHO cells stably expressing PD-L1. This is another data set of the same source.
Assay [15] concerns the target PD-L1 (human) (UniProt Q9NZQ7). As to the kind of experiment: flow cytometry, CHO cells expressing PD-L1.
Assay [16] addresses PD-L1 (human) (UniProt Q9NZQ7). As to the kind of experiment: flow cytometry, MFI on PD-L1 over MFI on CD28.
Assay [17] addresses human CTLA-4 (human) (UniProt P16410). As to the kind of experiment: flow cytometry, CHO cells expressing CTLA4.
Assay [18] concerns the target PD-L1 (human) (UniProt Q9NZQ7). As to the kind of experiment: flow cytometry, CHO/huPD-L1 cells; vs WT CD80 ECD-Fc (Abcam).
The target in assay [19] is CD28 (human) (UniProt P10747). As to the kind of experiment: flow cytometry, Jurkat/IL2 reporter cells (CD28).
Assay [20] addresses PD-L1 (human) (UniProt Q9NZQ7). As to the kind of experiment: flow cytometry, CHO cells expressing huPD-L1.
Assay [21] concerns the target human CTLA-4 (human) (UniProt P16410). As to the kind of experiment: flow cytometry, CHO cells expressing huCTLA-4.
Assay [22] shares this target. As to the kind of experiment: flow cytometry, CHO/huCTLA-4 cells; vs WT CD80 ECD-Fc (Abcam).
Assay [23] concerns the target CD28 (human) (UniProt P10747). As to the kind of experiment: flow cytometry, Jurkat/IL2 reporter cells (CD28). This is another data set of the same source.
The target in assay [24] is PD-L1 (human) (UniProt Q9NZQ7). As to the kind of experiment: flow cytometry, CHO cells expressing huPD-L1. The source holds these as a separate data set.
Assay [25] deals with human CTLA-4 (human) (UniProt P16410). As to the kind of experiment: flow cytometry, CHO cells expressing huCTLA4.
The target of assay [26] is PD-L1 (human) (UniProt Q9NZQ7). As to the kind of experiment: flow cytometry, MFI on CHO/PD-L1 over MFI on Jurkat (CD28).
In assay [27] the target is human CTLA-4 (human) (UniProt P16410). As to the kind of experiment: flow cytometry, CHO cells stably expressing CTLA4. The source holds these as a separate data set.
Assay [28] addresses CD28 (human) (UniProt P10747). As to the kind of experiment: flow cytometry, Jurkat cells (CD28). The source holds these as a separate data set.

Read-outs that look alike come from different tables or passages of the source.

Chain of PD-L1 (human) (Q9NZQ7 19-290): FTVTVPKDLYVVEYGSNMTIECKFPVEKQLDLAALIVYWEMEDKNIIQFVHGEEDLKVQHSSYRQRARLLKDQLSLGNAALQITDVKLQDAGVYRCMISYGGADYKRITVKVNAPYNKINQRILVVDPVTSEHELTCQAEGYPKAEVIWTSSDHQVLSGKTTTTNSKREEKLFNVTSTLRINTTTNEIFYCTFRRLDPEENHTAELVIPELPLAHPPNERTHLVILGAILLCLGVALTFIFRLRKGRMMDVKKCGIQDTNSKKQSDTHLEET
Chain of human CTLA-4 (human) (P16410 36-223): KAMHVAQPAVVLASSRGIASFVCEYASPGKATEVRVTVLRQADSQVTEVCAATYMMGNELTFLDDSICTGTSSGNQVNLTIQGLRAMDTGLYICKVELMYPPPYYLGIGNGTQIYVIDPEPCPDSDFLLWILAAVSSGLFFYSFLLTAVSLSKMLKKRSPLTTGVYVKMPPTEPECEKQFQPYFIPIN

Take “CD80 IgV-Fc H18Y/E35D/M47I/V68M/Y87N (Fc fusion)”: the RLU at 5.0 nM: Fold Increase over WT CD80-IgV-Fc in the assay with PD-L1 (human) [1] and with CD28 (human) [2] was 5.5 fold in each case. Moreover, the MFI at 33.3 nM with CD28 (human) [3] was 1430 MFI; with human CTLA-4 (human) [4], 19700 MFI; with PD-L1 (human) [5] it was 9300 MFI.

“variant CD80 IgV-Fc E35D/A71D (SEQ ID NO: 194) (Fc fusion)”: in the assay with PD-L1 (human) [6], the MFI at 22.2 nM was 13800 MFI.

As to “CD80 IgV-Fc E35D/M47I/V68M/Y87N (Fc fusion)”, the RLU at 5.0 nM: Fold Increase over WT CD80-IgV-Fc with PD-L1 (human) [7] and with CD28 (human) [8] was 2.4 fold throughout.

As for “variant CD80 IgV-Fc (inert) H18A/A26N/E35D/M47L/V68M/A71G/D90G (Fc fusion)”, the Fold change to WT CD80 in the assay with CD28 (human) [9] worked out at 48.2 fold; in the assay with human CTLA-4 (human) [12], 15.4 fold; with PD-L1 (human) [13] it was 220 fold. Also, the MFI at 33.3 nM in the assay with human CTLA-4 (human) [10] was determined as 21400 MFI; with CD28 (human) [11], 4910 MFI; in the assay with PD-L1 (human) [14] it was 36300 MFI.

With “CD80 T13R/Q33R/E35D/M38I/M47L/V68M/L85M IgV-Fc (Fc fusion)”, the Fold change to WT CD80 was determined as 21.5 fold in the assay with PD-L1 (human) [15], 0.5 fold with CD28 (human) [11] and 12.6 fold in the assay with human CTLA-4 (human) [17]. Moreover, the MFI at 33.3 nM with PD-L1 (human) [15] was determined as 1110 MFI; with CD28 (human) [11], 14.2 MFI; with human CTLA-4 (human) [17], 22000 MFI. The Ratio of PDL1:CD28 with PD-L1 (human) [16] is 77.9.

As to “variant CD80 IgV-Fc (inert) H18A/A26P/E35D/M47L/V68M/A71G/D90G (Fc fusion)”, the Fold change to WT CD80 with CD28 (human) [9] came out at 46.4 fold; with human CTLA-4 (human) [12], 17.2 fold; with PD-L1 (human) [13], 203 fold. The MFI at 33.3 nM with human CTLA-4 (human) [10] is 23800 MFI; with CD28 (human) [11], 4730 MFI; with PD-L1 (human) [14], 33400 MFI.

With “CD80 IgV-Fc E35D/D46E/M47I/V68M/L85M (Fc fusion)”, the RLU at 5.0 nM: Fold Increase over WT CD80-IgV-Fc with PD-L1 (human) [7] and with CD28 (human) [8] was 3.1 fold in each case.

Take “variant CD80 IgV-Fc D46V/M47L/L85Q (Fc fusion)”: the Fold change to WT CD80 with PD-L1 (human) [18] is 46.7 fold; with human CTLA-4 (human) [22], 1 fold. Moreover, the MFI at 33.3 nM with CD28 (human) [19] amounted to 567 MFI; with PD-L1 (human) [20], 5980 MFI; with human CTLA-4 (human) [21], 40200 MFI.

“variant CD80 IgV-Fc E35D/M47V/N48K/V68M/K89N (Fc fusion)”: the MFI at 33.3 nM stood at 1350 MFI with CD28 (human) [19]; 11700 MFI in the assay with CD28 (human) [23]; 14800 MFI with PD-L1 (human) [20]; 20900 MFI with human CTLA-4 (human) [21]; 89800 MFI in the assay with PD-L1 (human) [24]; 807 MFI with human CTLA-4 (human) [25].

Regarding “CD80 IgV-Fc V22D/E24D/E35D/M47L/V68M/L85M/D90G (Fc fusion)”, the RLU at 5.0 nM: Fold Increase over WT CD80-IgV-Fc in the assay with PD-L1 (human) [7] and in the assay with CD28 (human) [8] was 2.4 fold in each case.

“CD80 IgV-Fc H18Y/E35D/M47L/V68M/A71G/L85M (Fc fusion)”: the RLU at 5.0 nM: Fold Increase over WT CD80-IgV-Fc with PD-L1 (human) [1] and with CD28 (human) [2] was 5.5 fold throughout. For the same substance, the figures for the Fold change to WT CD80 with CD28 (human) [3], in the assay with human CTLA-4 (human) [4] and with PD-L1 (human) [5] were 69.1 fold, 19.8 fold and 140 fold, respectively. Further, the MFI at 33.3 nM with CD28 (human) [3] is 2850 MFI; in the assay with human CTLA-4 (human) [4], 20700 MFI; in the assay with PD-L1 (human) [5], 9890 MFI. In addition, in the assay with PD-L1 (human) [26], the Ratio of PDL1:CD28 turned out to be 3.5.

For “variant CD80 IgV-Fc A26E/E35D/M47L/A71G (Fc fusion)”, the MFI at 33.3 nM with human CTLA-4 (human) [27] was determined as 20600 MFI; with CD28 (human) [23], 2160 MFI; with PD-L1 (human) [24] it was 53400 MFI; in the assay with human CTLA-4 (human) [25], 341000 MFI; in the assay with CD28 (human) [28] it was 236 MFI.

Consider “CD80 H18Y/V22D/E35D/M47V/N48K/V68M IgV-Fc (Fc fusion)”, for which the Fold change to WT CD80 with PD-L1 (human) [15] came to 250 fold; with CD28 (human) [11], 8.2 fold; with human CTLA-4 (human) [17], 9 fold. For the same substance, the MFI at 33.3 nM came out at 12900 MFI with PD-L1 (human) [15], 257 MFI with CD28 (human) [11] and 15800 MFI with human CTLA-4 (human) [17]. The Ratio of PDL1:CD28 in the assay with PD-L1 (human) [16] came out at 50.1.

As for “CD80 IgV-Fc V22D/E24D/E35D/M47L/V68M (Fc fusion)”, the RLU at 5.0 nM: Fold Increase over WT CD80-IgV-Fc with PD-L1 (human) [7] and in the assay with CD28 (human) [8] was 2.4 fold throughout.

With “variant CD80 IgV-Fc E35D/M47V/N48K/K89N (Fc fusion)”, the Fold change to WT CD80 was 52.1 fold with PD-L1 (human) [18] and 1.1 fold with human CTLA-4 (human) [22]. Besides, the MFI at 33.3 nM with CD28 (human) [19] came out at 701 MFI; in the assay with PD-L1 (human) [20] it was 6670 MFI; in the assay with human CTLA-4 (human) [21], 43800 MFI.

The record behind these values is US20220177587A1, “METHODS AND USES OF VARIANT CD80 FUSION PROTEINS AND RELATED CONSTRUCTS” (Alpine Immune Sciences, Inc., priority 2018, published 2022).
